# Assay: yeast display, Sf9 membrane polyspecificity reagent, FACS + sequencing; frameworks hold sequencing errors
# Summary of the method: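 Galactose induction of a Saccharomyces cerevisiae BJ5465 synthetic nanobody display library ran 36–48 hours. The cells were then stained for 1 hour at 4 °C with 10% biotinylated, detergent-solubilized Sf9 membrane reagent, pulled down on streptavidin microbeads and FACS-sorted into low and high (top ~1%) gates on expression and reagent-binding fluorescence. Labels for polyreactivity follow the gate of origin.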
row,Sequence,polyreactivity (PSR sort gate)
1,QVQLVESGGGLVQAGVSLRLSCAASGSTLVLNAMGWYRQAPGKERELDAAISRGGGSTSYADSVKGRFTISRDNAKNTVYLQMNSLKPEDTAVYYCNAYTYYHANHVQGFGYWGQGTQVTVSS,low polyreactivity
2,QVQLVESGGGLVQAGVSLRLSCAASGSTSSRNAMGRYRQAPGKEWELVAAITSGTRTYYADSVKGRFTISRDNAKNTVYLQMNSLKPEDTAVYYCARGRVSRYTNTDYDYWGQGTQVTVSS,high polyreactivity
3,QVQLVESGGGLVQAGVSLRLSCSASGRTFSGYAMGWYRQAPGKERELVAAISGGTSTNYADSVKGRFTISRDNAKNSVYLPMNSLKPEDTAVYYCNTDVPDPYWAYWTGGYDYWGQGTHVTVSS,low polyreactivity
4,QVQLVESGGGLVQAGVSLSLSCAGSGFIFFQYPMGWYRDAPGKDRELVAAISGSGVTTYYADSVKGRFTISRDYAKKTVYLQMNSLKPEDTAVYYCAALHYRIRRTGMDYWGQGTQVTVSS,low polyreactivity
5,QVQLVESGGGLVQALGSLRLSCAASGTTFNSNVMGWYRPAPGKERELVAGNNTTYYADSVKGRFTISRDNAKNTVYLQMNSLKPEDTAVYYCNGSEDAPAIEYLAPDGHDGYWGQGTQVTVSS,low polyreactivity
6,QVQLVESGGGLVQARGSLRLSCAASALTFRIYDMGWYRQAPGKERELVAAITRGGSTYADSVKGRFTISRDNAKNTVYLQMNSLKPEDTAVYYCAARVRSTSQVSASPVWYYYWGQGTQVTVSS,high polyreactivity
7,QVQLVESGGGLVQARGSLRLSCAASGFILTYYAMGRYRQAPGKEMELVATISSGGGSTYYADSVKGRFTISRDNAKNTVYLQMNSLKPEDTAVYFCAASRRMTGIRYINRYEYWGQGTQVTVSS,high polyreactivity
8,QVQLVESGGGLVQARGSLRLSCAASGFTFDFYAMGWYRQAPGKERELVAAISKNDGTTYYADSVKGRFTISRDNAKNTVYLQMNSLKREDTAVYYCAAESGYPDYTYVSSGDYWGQGTQVTVSS,low polyreactivity
9,QVQLVESGGGLVQARGSLRLSCAASGIIFGYNAKGWYRQAPGKERELVAVITWNGGSTYYADSVKGCFTISRDNAKNTVYLQMNSLKPEDTAVYYCNAGDDYAYGVELSYDYWGQGTQVTVSS,low polyreactivity
10,QVQLVESGGGLVQARGSLRLSCAASGRIFSPYAMGWNRQAPWKERELVASITSGGTTNYADSVKGRFTISRDNAKNTVYLQMNSLKTEDTAVYYCATTYSYDDKFTSTLVDPDYGYWGQGTQVTVSS,low polyreactivity
11,QVQLVESGGGLVQARGSLRLSCAASGRILWDYAMGWYRQAPGKEREWLAAIDWSAGSTYYADSVKGRFTISRDNAKNTVYLQMKSLKPEDTAVYYCNARSRVGNSGADYDYWGQGTQVTVSS,low polyreactivity
12,QVQLVESGGGLVQARGSLRLSCAASGRTFGLYAMGWYIQAPGKEWELVAAITSGGSTYYADSVKGRFTISRDNAKYTVYLQMNSLTPEDTAVYFCDAEHDYLAQFEYDYWGPGTQVTVSS,low polyreactivity
13,QVQLVESGGGLVQARGSLRLSCAASGRTFTSYAMGWYRQAPGKERELVAAISKRGGNTYYADSVKGRFTISRDNAKNTVYLQMNSLKPEDTAVYYCAARTWAGRWYGLDYWGQGTQVTVSS,high polyreactivity
14,QVQLVESGGGLVQARGSLRLSCAASGRTSPYYAMGWYRQAPGKEREWVAAISDGGSTNYADSVKGRFTISRDNAKNTVYLQMNSLKPEDTAVYYCAAYWHCFGWLRGGYWGQGTQVTVSS,high polyreactivity
15,QVQLVESGGGLVQARGSLRLSCAASGSIFHHYAMGWYRQAPGKDTELVAAISKSGGSTYYADSVKGRFTISRDNAKNTVYLQMNSLKPEDTAVYYCNAEVFWWDLWYDYWGQGTKVTVSS,high polyreactivity
16,QVQLVESGGGLVQARGSLRLSCAASGSIFPGYAMRWYREAPGKARELVAAISTSGGSTYADSVTGRFTISRDNAKNTGYLQMNSLKPEDTAVYYCAATYTYTSPVYYSLDGPWPYDYWGQGSQVTVSS,low polyreactivity
17,QVQLVESGGGLVQARGSLRLSCAASGSIFPNYAMGWYRQAPGKERELVAAISSSGGRTYYADSVKGRFTSSRDNAKNTVYLQMNRLKPEDTAVYYCAVRGYWGEGTQVTVSS,low polyreactivity
18,QVQLVESGGGLVQARGSLRLSCAASGSIFYRNAMGWYRQAPGKETELVARIDRGGITHYADSVKGRFTISRDNAMNTVYLQMNSLKPEDTAVYYCAARKGYWYPTGHGARRYDYWGQGTQVTVSS,high polyreactivity
19,QVQLVESGGGLVQARGSLRLSCAASGSTFDLYAMGWYRQAPGKEREFVAAISSSGGTTYNADSVKGRFTSSRDNAKKTVYLQRKSLKPEDTAVYYCAAVRYYESRGGYDYWGQGTQVTVSS,low polyreactivity
20,QVQLVESGGGLVQARGSLRLSCAASGSTFVTYAMGWYRQAPGKERELVAAITWSGGGTYYADSVKGRFTISRDNAKNTVYLQMNSLKPEDTAVYYCNRPAAVGDEDYWGQGTQVTVSS,low polyreactivity
21,QVQLVESGGGLVQARGSLRLSCAPSGFIFDVYAMGWYRQAPGKERELVAAISSSGGRTYYADSVKGRFTISRDNAKNTVYLQMNSLKPEDTAVYYCAAKTDSRTKVYTADYWGQGTQVTVSS,high polyreactivity
22,QVQLVESGGGLVQARGSLRLSCASSGRIFWRYAMRWYSQSPGKERELVAAISRSGGRTYYADSVKGRFTISRDNAKNTVYLQMISLKPEDTAVYYCAAKTGGQPGDYWGQGTQVTVSS,high polyreactivity

row,Sequence,polyreactivity (PSR sort gate)
1,QVQLVESGGGLVQARGSLRLSCSSSGSIFASYAMGWYRRAPGKERELVAAISRRAVLTYYADSVKGSFTISRDNAKNTVYLQMNSLKPEDTAVYYCNARGYSGYQRYGYNYWGQGTQVTVSS,high polyreactivity
2,QVQLVESGGGLVQARGSRRLTCAASGRTFSYYAMGWYLHEPGKERELVAAITSSGGRTTYADSVKGRFTISRDNAKNTVYLQMNSLKPEDTAVYYCNVVRWTLKYGYWGQGTQVTVSS,high polyreactivity
3,QVQLVESGGGLVQARRSLRLSCAASGSTFVQYAMGWDRQAPGNERELVASISYSTGSSTYYADSVKGRFTISRDNAKTTVYLQMNSLKPEDTAFYECAAGIPKGGWSRPRYYYWGQGTQVTVSS,high polyreactivity
4,QVQLVESGGGLVQASGSLRLSCAASVRIFFVNAMGWYRQEHGKERELVAAIPSSGGSTYYADSVKGRFTISRDNAKNTVYLQMNSLKPEDTAVYYCNARSWYPYDYWGQGTQVTVSS,low polyreactivity
5,QVQLVESGGGLVQAVGSIRLSCAASGSIFRKYSIRWNRQAPGKDRELVAAISWSGGGTYYADSVKGRFTISRDNAKNTVYLQMNSLKPEDTAVYYCAADPYWDSKGVYWGQGTQVTVSS,low polyreactivity
6,QVQLVESGGGLVQAVGSLRLICDASGSTFYKYSMGWYRQAPGKERELVAAITTSGTGTYYADSVKGRFTISRDNAKNTVYLEMNSLKPEDTGVYYCNARIVYRVGVSRMYYWGQGTQVTVSS,high polyreactivity
7,QVQLVESGGGLVQAVGSLRLSCAASGFTFERNAMGWYRQAPGKARELVATINGSSDSTYYADSVKGRFTISRDKAKNTVYLQMNSLKPEDTAVYYCNADSITEGNSRYSHFDYWGQGTQVTVSS,low polyreactivity
8,QVQLVESGGGLVQAVGSLRLSCAASGFTFGEYDMGSYRHAPGKERELVAAIDSGGSTYYADSVKRRFTISRDNAKNTVYLQMNSLKPEDTALYYCNADSTYDYYELDYDHWGQGTQVTVSS,low polyreactivity
9,QVQLVESGGGLVQAVGSLRLSCAASGFTFTNYAMGWSRQAPVKEREFVAAISGTGGSTYYADSVKGRFTISRDNAYNTEYLQMNSLKPEDTAVYYCARRRTYPPGRYYYLGQGTQVTVSS,high polyreactivity
10,QVQLVESGGGLVQAVGSLRLSCAASGIIFRNYAMGWYRQAPGKEREWVAAISRSGGSTYYADSVKGRFTISRDNAKNTCYLQMNSLKPEDTAVYYCNAAYWAYNGFSYLMDYWGQGTQVTVSS,low polyreactivity
11,QVQLVESGGGLVQAVGSLRLSCAASGRIFRHNAMGWYRQAPGKEWELVAAISGGGTTYYADSVKGRFTISRDNAKNTVYLQMNSLKPEDTAVYYCAARRRGSVGVGYAYAYYYWGQGTQVTVSS,high polyreactivity
12,QVQLVESGGGLVQAVGSLRLSCAASGRILYWYAMGWYRQAPGKERELVAAINHGDTSTYYADSVKGRFTISRDNAKNTVYLQMNSLIPEDTAVYYCNVRSYVYSRWYQSTWGYYYWGQGTQVTVSS,high polyreactivity
13,QVQLVESGGGLVQAVGSLRLSCAASGRTFGTYAMGWYRQAPGKERELVAAISSGGSTYADSVKGRFTISRDNAKNTVYLQMNSLKPEDTAVYYCNNVRRKQSVLTFDYWGQGTQVTVSS,high polyreactivity
14,QVQLVESGGGLVQAVGSLRLSCAASGSIFRKYVMGWYRQAPGKERELVAVISSGTGTYYADSVKGRFTISRDNAKNSVYLQMNSLKPEDTAVYYCAAKYFGKWYKYYYWGQGTQVTVSS,high polyreactivity
15,QVQLVESGGGLVQAVGSLRLSCAASGSTFDIYAMGWYRQAPGKERELVAAITSGGSTYADSVKGRFTISRDNAKNTVYLQMNSLKPEDTAVYYCNADRWFGNYLHLSFLNDYWGQGNQVTVSS,low polyreactivity
16,QVQLVESGGGLVQAVGSLRLSCAASGSTFRGYTMGWYRQEPGKERELVSAINWSGGDTYYADSVKGRFTISRDNAKNTVYLQMNSLKPEDTAVYYCNTRHTYPQSFILRRDYWGQGTQVTVSS,low polyreactivity
17,QVQLVESGGGLVQAVGSLRLSFAASGFTFWYYPMGWYRQAPGKERELLAAITSSGGSTYYADSEKGRFTISRDYAKITVYLQMNSLKPEDTAVYYCAAGAPYRYYYCGQGTQVTVSS,high polyreactivity
18,QVQLVESGGGLVQAVGSLSLSCAASGLTLGSYAKGAYRQAPGKERELVAAISRRSGRTYYADSVKGLFTISRDNAKNTVYLQINSLKPEDTAGFYCNRGYTAQVYTEFDYWGQGTQVTVSS,low polyreactivity
19,QVQLVESGGGLVQEGGSLRISCAASGRIFYYYVMGGYRQAPGKERELVAGITSRGRTYYADSVKGRFTISRDNAKNTVYLQMNSLKPEVTAVYDCNKVGATWRQWFGYWGQGTQVTVSS,high polyreactivity
20,QVQLVESGGGLVQEGGSLRLICAASGSILGSNAMGWYRQAPGKEREFVAAITWTGGSTYYADSVKGRFTISRDNAKNTVYLQMNSLKREDTAVYYCAKDVKYVKMDYWGQGTQVTVSS,low polyreactivity
21,QVQLVESGGGLVQEGGSLRLSCAASGFIFDGNAMGWYRQAPGKERELVAAMSWDGGTYYADSVKGRFTISRDNAKNTVYLQMNSLKPEDTAVYYCAAEQTQLYSFGWDEYWGQGTQVTVSS,low polyreactivity

# Source: the nanobody polyreactivity screen of Harvey et al. (2022)
